The text below walks through data of patent US5670637, “Nucleic acid ligands” (NeXstar Pharmaceuticals, Inc.).

The target in the data set is nerve growth factor (NGF) (UniProt P01139 P01139:122-241). Description: filter. As to conditions: chain copies: 2.
Sequence of nerve growth factor (NGF) (P01139 122-241, one chain of several): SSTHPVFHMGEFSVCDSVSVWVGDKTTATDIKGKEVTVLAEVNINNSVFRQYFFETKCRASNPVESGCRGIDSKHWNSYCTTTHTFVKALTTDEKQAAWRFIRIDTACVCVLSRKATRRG

B1: hsngf.a (ssRNA)
RNA: GGGAGCUCAGAAUAAACGCUCAACUCAUGGAGCGCAAGACGAAUAGCUACAUAUUCGACAUGAGGCCCGGAUCCGGC
Turning to B1, the binding result is “binds”.
